This note sets out measurements from patent publication US20140178935A1 (AVEO PHARMACEUTICALS, published 2014).

Test [1] concerns the target T1, recombinant human HGF (R&D Systems, Catalog No. 294-HGN-025) (human, UniProt P14210 32-728).
T1 construct: Mature HGF is a disulfide-linked heterodimer of alpha and beta chain cut from one precursor; also called rhHGF (R&D Systems); rhHGF
The test is described as follows: SPR, captured antibody, HGF injected, 25 C. On the procedure:
Mouse anti-human immunoglobulins (Jackson Labs, Catalog No. 209-005) were immobilized on carboxymethylated dextran CM4 sensor chips (BIAcore, Catalog No. BR-1006-68) by amine coupling (BIAcore, Catalog No. BR-1000-50) using a standard coupling protocol according to manufacturer's instructions. The analyses were performed at 25° C. using PBS (GIBCO, Catalog No. 14040-133) containing 0.05% surfactant P20 (BIAcore, Catalog No. BR-1000-54), and 2 mg/mL BSA (EMD, Catalog No. 2930).
(§1) The antibodies were captured in an individual flow cell at a flow rate of 10 μL/min. Injection time was variable for each antibody to yield approximately 20 RU of antibody captured for each cycle. […] The dissociation phase was monitored for 15 or 90 minutes, depending on concentration. The surface then was regenerated with 10 mM Glycine-HCl, pH 2.2 (BIAcore, Catalog No. BR-1003-54) injected for 3 minutes at a flow rate of 60 μL/min before another cycle was initiated.
Kinetic parameters were determined using the kinetic function of the BIAevalutation™ software with reference subtraction.

Test [2] deals with T1, recombinant human HGF (R&D Systems, …). The test is described as follows: cell-based or functional assay.
In test [3] the target is T2, recombinant mouse HGF (R&D Systems) (mouse, UniProt Q08048 33-728).
T2 construct: Bought protein, construct not described; also called rmHGF (R&D Systems); murine HGF
The test is described as follows: SPR, antibody immobilized, HGF protein injected, 25 C. On the procedure: (§2) Analyses were performed at 25° C. using PBS (GIBCO, Catalog No. 14040-133) containing 0.05% surfactant P20 (BIAcore, Catalog No. R-1000-54), 2 mg/mL BSA (EMD, Catalog No. 2930) and 10 mg/mL CM-Dextran Sodium salt (Fluka, Catalog No. 86524) as running buffer. […] The resulting binding was determined as resonance units (RU) over baseline 30 seconds after the end of injection. […] Non-specific binding was monitored by comparing binding to a control surface.
In general terms: Surface plasmon resonance follows binding to a sensor surface in real time, without labels.

Test [4] deals with T3, recombinant mhm chimeric HGF protein containing the region I499-R556 of hHGF disposed between murine sequences (mouse-human-mouse chimera, UniProt Q08048 56-728).
T3 construct: also called mhm chimera (I499-R556)
T3 chain: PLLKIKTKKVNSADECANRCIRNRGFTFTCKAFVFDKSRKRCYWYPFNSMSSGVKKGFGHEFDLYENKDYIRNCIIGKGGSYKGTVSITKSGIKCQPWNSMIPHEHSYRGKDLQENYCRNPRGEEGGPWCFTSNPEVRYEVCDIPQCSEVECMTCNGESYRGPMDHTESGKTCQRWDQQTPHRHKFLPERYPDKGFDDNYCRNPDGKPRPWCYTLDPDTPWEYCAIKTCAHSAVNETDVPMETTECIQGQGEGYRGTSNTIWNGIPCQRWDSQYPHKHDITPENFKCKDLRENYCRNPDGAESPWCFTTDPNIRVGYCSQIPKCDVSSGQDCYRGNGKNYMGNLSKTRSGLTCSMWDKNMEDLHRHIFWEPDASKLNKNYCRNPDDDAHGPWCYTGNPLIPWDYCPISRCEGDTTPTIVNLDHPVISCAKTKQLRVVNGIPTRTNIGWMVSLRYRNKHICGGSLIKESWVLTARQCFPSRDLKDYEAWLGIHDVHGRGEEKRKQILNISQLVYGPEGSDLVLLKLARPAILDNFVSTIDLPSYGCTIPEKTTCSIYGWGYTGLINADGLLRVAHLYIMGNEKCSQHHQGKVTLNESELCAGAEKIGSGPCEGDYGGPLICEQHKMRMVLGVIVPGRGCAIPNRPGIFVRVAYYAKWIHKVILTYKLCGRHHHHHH
Described as above. On the procedure:
as §2

Test [5] addresses T4, recombinant mhm chimeric HGF protein containing human W507-L585 HGF sequence disposed within mouse HGF … (mouse-human-mouse chimera, UniProt Q08048 56-728).
T4 construct: CHO supernatant; also called mhm chimera (W507-L585); MHM chimera (507-585)
T4 chain: T3 chain with R443Q, N445T, I446V, E499D, R502C, I505V, I508V, L523M
The test is described as above. On the procedure: as §2

Test [6] has as its target T1, recombinant human HGF (R&D Systems, …). The test is described as follows: competition ELISA (DELFIA): antibody inhibits biotinylated c-Met binding to plate-coated HGF. On the procedure: The plates then were blocked with 200 μL of 5% non-fat dry milk in PBS for 1 hour at room temperature. […] 100 μL of sample per well was transferred to the assay plate and incubated for 2 hours at room temperature. The resulting plates were washed three times with PBS-0.1% Tween 20, and incubated for 1 hour at room temperature with Eu-labeled Streptavidin (Wallac, Catalog No. 1244-360) diluted 1:1000 in DELFIA assay buffer (Wallac, Catalog No. 4002-0010). The resulting plates were washed 3 times with DELFIA wash solution (Wallac, Catalog No. 4010-0010) and incubated with 100 μL/well DELFIA enhancement solution (Wallac #4001-0010) for 15 minutes at room temperature with agitation. The plates were read on Victor³V instrument (Perkin Elmer) using the Europium method. The IC₅₀ values were calculated using Prism.
Background: ELISA stands for enzyme-linked immunosorbent assay.

Test [7] shares this target. The test is described as follows: cell-based or functional assay. The source holds these as a separate data set.
The target is the same in test [8]. The test is described as follows: SPR, captured antibody, HGF injected, 37 C. On the procedure: Mouse anti-human immunoglobulins (Jackson Labs, Catalog No. 209-005) or rabbit anti-mouse immunoglobulins (BIAcore, Catalog No. BR-1005-14) were immobilized on carboxymethylated dextran CM4 sensor chips (BIAcore, Catalog No. BR-1006-68) by amine coupling (BIAcore, Catalog No. BR-1000-50) using a standard coupling protocol according to manufacturer's instructions. […] The analyses were performed at 25° C. and 37° C. using PBS (GIBCO, Catalog No. 14040-133) containing 0.05% surfactant P20 (BIAcore, Catalog No. BR-1000-54), and 2 mg/mL BSA (EMD, Catalog No. 2930) as running buffer.
as §1, with “[…].” for “μL/min.”, “surface of mouse anti-human immunoglobulins sensor chips was” for “surface”, “then” for “then was”, “initiated. The surface of rabbit anti-mouse immunoglobulins sensor chips was regenerated with 10 mM Glycine-HCl, pH 1.7 (BIAcore, Catalog No. BR-1003-54) injected for 3 minutes at a flow rate of 60 μL/min before another cycle was initiated.” for “initiated.”
Kinetic parameters were determined using the kinetic function of the BIAevaluation software with reference subtraction.

Where a chain is given by its changes, count along the chain named.

T2 sequence (Q08048 33-728 limits assumed): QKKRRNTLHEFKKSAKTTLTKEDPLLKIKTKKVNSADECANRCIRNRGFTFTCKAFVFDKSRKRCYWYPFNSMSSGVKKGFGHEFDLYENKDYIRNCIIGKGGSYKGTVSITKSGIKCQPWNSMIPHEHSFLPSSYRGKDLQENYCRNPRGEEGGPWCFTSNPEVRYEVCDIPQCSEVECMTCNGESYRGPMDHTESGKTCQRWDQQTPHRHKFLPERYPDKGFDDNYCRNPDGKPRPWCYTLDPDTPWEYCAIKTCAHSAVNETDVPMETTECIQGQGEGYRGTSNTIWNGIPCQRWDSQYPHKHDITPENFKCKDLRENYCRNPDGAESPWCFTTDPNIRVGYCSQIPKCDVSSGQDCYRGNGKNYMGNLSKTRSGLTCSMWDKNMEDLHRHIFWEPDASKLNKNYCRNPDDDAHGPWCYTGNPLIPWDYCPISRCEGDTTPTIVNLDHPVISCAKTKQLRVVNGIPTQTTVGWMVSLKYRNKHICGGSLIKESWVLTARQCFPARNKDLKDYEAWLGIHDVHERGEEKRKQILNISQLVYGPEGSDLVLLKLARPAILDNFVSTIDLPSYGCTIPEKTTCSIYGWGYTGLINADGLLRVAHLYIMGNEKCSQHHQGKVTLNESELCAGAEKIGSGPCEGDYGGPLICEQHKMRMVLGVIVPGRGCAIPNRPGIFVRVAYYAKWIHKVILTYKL
T1 sequence (P14210 32-728 limits assumed): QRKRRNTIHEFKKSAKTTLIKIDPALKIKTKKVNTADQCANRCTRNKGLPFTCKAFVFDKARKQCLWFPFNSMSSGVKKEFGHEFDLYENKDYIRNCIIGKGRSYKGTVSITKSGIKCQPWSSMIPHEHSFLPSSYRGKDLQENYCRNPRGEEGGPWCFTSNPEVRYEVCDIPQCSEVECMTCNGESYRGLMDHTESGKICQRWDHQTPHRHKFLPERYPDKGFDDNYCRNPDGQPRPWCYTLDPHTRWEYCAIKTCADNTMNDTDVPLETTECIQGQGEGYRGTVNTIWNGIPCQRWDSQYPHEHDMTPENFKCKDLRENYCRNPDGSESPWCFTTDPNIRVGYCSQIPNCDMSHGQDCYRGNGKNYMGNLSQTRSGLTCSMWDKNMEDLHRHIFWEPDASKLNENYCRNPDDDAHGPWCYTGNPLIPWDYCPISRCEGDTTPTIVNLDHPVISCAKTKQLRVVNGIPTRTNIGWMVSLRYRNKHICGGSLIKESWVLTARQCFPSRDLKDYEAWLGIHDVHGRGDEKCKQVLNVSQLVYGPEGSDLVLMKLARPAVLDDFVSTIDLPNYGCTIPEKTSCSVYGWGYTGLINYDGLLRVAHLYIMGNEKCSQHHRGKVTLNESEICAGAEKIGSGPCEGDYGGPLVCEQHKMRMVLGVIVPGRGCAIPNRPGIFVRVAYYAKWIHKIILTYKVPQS

B1: HE2B8-2 (LR2B8HC + IgG1 constant region G1m(3) allotype allele 1, plus LRMR2B8LC + Kappa constant region Km(3) allotype allele 1) (antibody, V domains shown)
VH: QVQLVQPGAEVVKPGTSVKLSCKASGYTFTTYWMHWVNQAPGQGLEWIGEINPTNGHTNYNEKFKGKATLTVDKSTSTAYMELSSLRSEDTAVYYCARNYVGSIFDYWGQGTLLTVSS
VL: DIVMTQSPDSLAMSLGERVTLNCKASENVVSYVSWYQQKPGQSPKLLIYGASNRESGVPDRFSGSGSATDFTLTISSVQAEDVADYHCGQSYNYPYTFGQGTKLEIKR
notes: Human Engineered 2B8 variant, human IgG1 kappa, made in HEK293E cells
In the case of B1, the Kd in test [1] turned out to be 5.2 pM. In addition, the koff in test [1] amounted to 9.6e-06 s⁻¹. Moreover, in test [1], the association rate constant (kon) stood at 1.8e+06 M⁻¹ s⁻¹. In addition, the “IC50, neutralization of HGF stimulated BrdU incorporation in 4 MBr-5 cells” value (“IC50, neutralization” for short) in test [2] amounted to 660 pM. Also, the binding result in test [3] is listed as “no binding”; in test [4], “binds”; in test [5] it was “binds”. Besides, the IC50 in test [6] amounted to 5700 pM. Besides, in test [7], the “EC50, inhibition of HGF-stimulated c-Met phosphorylation in PC-3 cells, Average of Two Trials” value (“EC50, inhibition” for short) came to 880 pM.

B2: HE2B8-3 (LRMR2B8HC + IgG1 constant region G1m(3) allotype allele 1, plus LR2B8LC + Kappa constant region Km(3) allotype allele 1) (antibody, V domains shown)
VH: B1 VH with V12K, N38R, E62Q, K65Q, K67R
VL: B1 VL with L11M, L15V, E55N, S56T
notes: as for B1
As for B2, the Kd in test [1] was 2 pM. In addition, the koff in test [1] stood at 4.1e-06 s⁻¹. Further, in test [1], the kon is 2e+06 M⁻¹ s⁻¹. The “IC50, neutralization” value in test [2] amounted to 550 pM. The binding result in test [3] is listed as “no binding”; in test [4] it was “binds”; in test [5], “binds”. The IC50 in test [6] was determined as 5900 pM. In addition, the “EC50, inhibition” value in test [7] was 790 pM.

B3: sh2B8-9 (G1m(3)) = hu2B8 Hv5-51.1 + IgG1 constant region (G1m(3) allotype, allele 2) plus hu2B8 Kv1-39.1 + Kappa constant region (Km(3) allotype, allele 2) (antibody)
heavy: not shown
light: DIQMTQSPSSLSASVGDRVTITCKASENVVSYVSWYQQKPGKAPKLLIYGASNRNTGVPSRFSGSGSGTDFTLTISSLQPEDFATYYCGQSYNYPYTFGQGTKLEIKRTVAAPSVFIFPPSDEQLKSGTASVVCLLNNFYPREAKVQWKVDNALQSGNSQESVTEQDSKDSTYSLSSTLTLSKADYEKHKVYACEVTHQGLSSPVTKSFNRGEC
notes: Superhumanized 2B8 variant, human IgG1 kappa, made in 293T cells
With B3, the “IC50, neutralization” value in test [2] was found to be 520 pM. For the same molecule, in test [8], the Kd was determined as 5.8 pM, the koff is 1.4e-05 s⁻¹ and the kon was found to be 2.5e+06 M⁻¹ s⁻¹. The binding result in test [3] is on record as “no binding”. The binding result in test [4] was “binds”. Also, the binding result in test [5] is given as “binds”. The 50% inhibitory concentration (IC50) in test [6] worked out at 4200 pM. In test [7], the “EC50, inhibition” value was found to be 930 pM.

The term Kd denotes the equilibrium constant for the complex coming apart. For orientation: koff means the first-order rate constant of dissociation. The term kon denotes the second-order rate constant of association. One may read the IC50 as the midpoint of a concentration-inhibition curve.
